Measurements published in paper PMC7201271.

How the values were obtained:
[1] = target: Neisseria meningitidis quinol-dependent nitric oxide reductase, wild type (Neisseria meningitidis); assay: native gel or EMSA; blue native PAGE of peak 1 and peak 2 fractions after concentration in 100 kDa cutoff devices; 5 and 10 ug loaded
[2] = target: NmqNOR-BRIL (Neisseria meningitidis qNOR with apocytochrome b562 fused to its C-terminus) (Neisseria meningitidis); assay: cryo-EM structure; NmqNOR-BRIL peak 1 at 4 mg/ml, no additional buffer components; C2 symmetry, 3.06 A

Substance	stoichiometry N [1]	stoichiometry N [2]
Neisseria meningitidis quinol-dependent nitric oxide reductase, wild type (enzyme)	2	–
NmqNOR-BRIL (Neisseria meningitidis qNOR with apocytochrome b562 fused to its C-terminus) (enzyme)	–	2
